Experimental data as given in publication PMC10398351, “Structural and molecular insight into antibody recognition of dynamic neoepitopes in membrane tethered MUC1 of pancreatic cancer cells and secreted exosomes” (RSC Chemical Biology, 2023).
“Also recorded” adds a separate entry of the source.

Legend:
[1] = biological target: MUC1 bearing ST antigen at the immunodominant DTR motif; assay: SPR affinity of SN-131 with MUC1 bearing ST antigen; assay type: binding; details: SN-131 with MUC1 bearing ST antigen at the immunodominant DTR motif; abstract
Procedure: The binding affinity of SN-131 Fab with MUC1 TRD models was measured by using a Biacore 2000 surface plasmon resonance (SPR) instrument (GE Healthcare). Synthetic MUC1 TRD models 2–4 with a C-terminal cysteine residue were immobilized on a CM5 chip (GE Healthcare) by a standard protocol of the maleimide coupling. The SN-131 Fab was injected over the surface of the immobilized MUC1 TRD models 2–4 and three kinetic parameters, the association rate constant (kon), the dissociation rate constant (koff), and the equilibrium dissociation constant (KD) were obtained with BIAevaluation 4.1 software (GE Healthcare) using a bivalent binding model. Isothermal titration calorimetry (ITC) experiments were also carried out to determine the thermodynamic parameters of the interaction between SN-131 and non-glycosylated-/Tn-MUC1 TRDs.7 All experiments and analyses were performed by using nano ITC (TA Instrument) and Nanoanalyze based on as independent model.

[2] = test system: MUC1 TRD; assay: Epitope mapping of SN-131 on glycopeptide microarray; assay type: binding; details: SN-131 1 µg/mL, 2 h at room temperature, Cy3 labeled anti-mouse IgG
Procedure: 100 mM solutions of the synthetic glycopeptides capped with ketone-linker at the N-terminus (5–9) dissolved in 25 mM sodium acetate buffer (pH 5.0) containing 0.005% Tween-20 (w/v) were robotically printed on plastic slides coated with a copolymer carrying aminooxy-/phosphorylcholine functional groups according to the protocol reported previously.[20,22,24] Detailed conditions for the binding assay are described in the ESI. ^† […]
as Additional Data in Supporting Information. Compounds 3 , 5, and 6 were synthesized previously5,7,8 and available for the present study.
Glycopeptide microarray. 100 mM solutions of the synthetic glycopeptides capped with ketone-linker at N -terminus (5~9) dissolved in 25 mM sodium acetate buffer (pH 5.0) containing 0.005% Tween- 20 (w/v) were robotically printed on plastic slides coated with a copolymer carrying aminooxy-/phosphorylcholine functional groups according to the protocol reported previ ousl y.5,7-9 For the epitope analysis of SN-131, antibody solutions (1 µg/mL) were added to each well of the slides. After incubation for 2 h at room temperature, the slides were rinsed and added with Cy3 labeled anti-mouse IgG polyclonal antibody (1 µg/mL). After washing, fluorescence of the wells were measured using a GlycoStation 1200 system and analysed with the ArrayVision […]
Anti-MU C1 mA b (SN -131). […]

[3] = test system: PANC-1 cells; assay: Live cell imaging of Alexa488-conjugated SN-131 on PANC-1 cells; assay type: cell-based, human; details: Alexa 488 conjugated SN-131 10 μg mL−1, 2 h at 37 °C
Procedure: PANC-1 cells (5 × 10^4 cells per well) were cultured with 10% FBS and 2 mM L-glutamine on an 8-well imaging plate (Fischer Scientific) for 48 h in 5% CO2 at 37 °C. Then, Alexa 488 conjugated SN-131 (10 μg mL^−1), 10 μM MUC1-5ST (8), or MAG (5 μg mL^−1) dissolved in Opti-MEM medium (gibco) was co-incubated with PANC-1 cells for 2 h in 5% CO2 at 37 °C. Cells were washed with Opti-MEM and stained with Hoechst 33342 (2.5 ng mL^−1 in Opti-MEM) for 30 min. […] The pictures were imaged with 60xlens and the following filter set (Blue: #OP-66843 Excitation 360/40, Emission 460/50, Green: #OP-66836, Excitation 470/40, Emission 535/50, Red: #OP-66837, Excitation 540/25, Emission […]). Imaging pictures were analysed by BZ-II Analyzer software (Keyence, Osaka).

[4] = test system: MUC1 TRD; details: cited from earlier work
Description: By using a robust synthetic glycopeptide library,[21–24] we have established a straightforward approach to antibodies recognizing cancer-relevant glycopeptidic epitopes modified with aberrant O-glycans, namely “dynamic neoepitopes”, found in the MUC1 TRD (Fig. 2a).[19,20] […] We considered that SN-131 is a highly potential anti-MUC1 antibody because this antibody binds specifically MUC1 TRD having core 1 type O-glycans overexpressed in many cancers including pancreatic cancer but not core 2 type O-glycans found in normal cells. However, the structural and molecular basis of the epitope recognition by SN-131 remain to be fully understood. We needed to investi ...

Kd [1]: 1.58 nM
B1: SN-131: anti-MUC1 mAb (clone 1B2, IgG2a) binding MUC1 TRD with Tn, T and ST antigens at the DTR motif (antibody, V domains shown)
VH: QVQLQQSGAELARPGASVKLSCKASGYTFTNYGLSWVKQRTGQGLEWIGENHPGSGIIYHNEKFRGKATLTADKSSSTAYVQLSSLTSEDSAVYFCARSSGTRGFAYWGQGTLVTVSA
VL: DVLMTQTPLSLPVSLGDQASISCRSSQSIVHSNGNTYLEWYLQKPGQSPKLLIYKVSNRFSGVPDRFSGSGSGTDFTLKISRVEAEDLGVYYCFQGSHGPWTFGGGTKLEIK
binding of SN-131 to MUC1 TRD glycoforms (epitope mapping, in words) [2]: binds MUC1 TRD with Tn, T, and ST antigens attached to the immunodominant DTR motif; also recorded: did not bind to non-glycosylated MUC1 TRD | binding to PANC-1 cell surface MUC1 TRD [3]: binds strongly | glycoform specificity of binding to MUC1 TRD [4]: does not bind to MUC1 TRD when the threonine residue of this immunodominant region is modified with STn, dST, or core 2-type mature complex O-glycan structures
